The values below come from patent publication US20260337282 (published 2026).

To fix the notation:
T1: mouse CCR8 (mouse)
T1 chain: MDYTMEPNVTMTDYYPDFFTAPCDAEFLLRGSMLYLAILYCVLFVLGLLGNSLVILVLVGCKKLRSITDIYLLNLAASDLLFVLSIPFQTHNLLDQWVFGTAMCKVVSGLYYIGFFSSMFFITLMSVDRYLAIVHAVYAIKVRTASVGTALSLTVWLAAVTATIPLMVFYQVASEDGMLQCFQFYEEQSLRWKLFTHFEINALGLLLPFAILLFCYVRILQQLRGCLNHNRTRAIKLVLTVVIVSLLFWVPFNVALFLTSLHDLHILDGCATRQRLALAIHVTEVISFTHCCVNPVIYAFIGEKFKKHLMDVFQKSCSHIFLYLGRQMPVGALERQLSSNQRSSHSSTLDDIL

B1: 11F8-SG-11F8-DA (antibody, V domains shown)
VH: QVQLVESGGGVVQPGRSLRLSCAASGFTFSTYVMHWVRQAPGKGLEWVAVISYSGNNKYYADSVKGRFIISRDNSKNTLFLQMNSLRGEDTAVYYCARGRSYVNYYGLDVWGQGTTVTVSS
VL: DIVMTQTPLSLSVTPGQPASISCKSSQSLLYSDAKTYLYWYLQKPGQPPHLLIYEVSNRFSGVPKRFSGSGSGTDFTLKISRVEAEDVGVYYCMQSVKIPLTFGGGTKVEIK
B2: 11B12-11F5 (antibody, V domains shown)
VH: QVQLVESGGGVVQPGRSLRLSCAASGFSFSSYVMHWVRQAPGKGLEWVAVISYDGSDKYYADSVKGRFTISRDNSKNTLFLQMNSLRPEDTAVYYCARGRGYRYGQSYYYGMDVWGQGTTVTVSS
VL: B1 VL with A34G, P45A, H50Q, K65D, Y91F, V97L, I99V, L101P, G105Q, E110D
B3: 11F8-DA-11F8-DA (antibody, V domains shown)
VH: B1 VH with S54D, G55A
VL: B1 VL
B4: 11F5-11B12 (antibody, V domains shown)
VH: EVQLVESGGGVVQPGRSLRLSCAASGFTFSSYVVHWVRQAPGKGLEWVAVISYDGDNKFYADSVKGRFTISRDNSKNTLYLQMNSLRTEDTAVYYCARGRNYYYYYGLDVWGQGTTVTVSS
VL: B1 VL with A34G, H50Q, L51I, Y54F, K65D, V97I, I99L
B5: 11F8-AG-11F8-AG (antibody, V domains shown)
VH: B1 VH with S54A
VL: B1 VL with D33A, A34G
B6: 11B12-AG-11B12-SG (antibody, V domains shown)
VH: B2 VH with D54A
VL: B1 VL with D33S, A34G, H50Q, L51I, Y54F, K65D, V97I, I99L
B7: 11F8-AG-11F8-DA (antibody, V domains shown)
VH: B1 VH with S54A
VL: B1 VL
B8: 11B12-SG-11B12-AG (antibody, V domains shown)
VH: B2 VH with D54S
VL: B1 VL with D33A, A34G, H50Q, L51I, Y54F, K65D, V97I, I99L
B9: 11B12-SG-11B12-SG (antibody, V domains shown)
VH: B2 VH with D54S
VL: B1 VL with D33S, A34G, H50Q, L51I, Y54F, K65D, V97I, I99L
B10: 11F5-DA-11F5-DA (antibody, V domains shown)
VH: B4 VH with G55A
VL: B1 VL with P45A, H50Q, K65D, Y91F, V97L, I99V, L101P, G105Q, E110D
B11: 11B12-11F8-SG (antibody, V domains shown)
VH: B2 VH
VL: B1 VL with D33S, A34G
B12: 11F8-SG-11F8-AG (antibody, V domains shown)
VH: B1 VH
VL: B1 VL with D33A, A34G
B13: 11B12-SG-11F8-SG (antibody, V domains shown)
VH: B2 VH with D54S
VL: B1 VL with D33S, A34G
B14: 11F8-AG-11F8-SG (antibody, V domains shown)
VH: B1 VH with S54A
VL: B1 VL with D33S, A34G
B15: 11F8-11F5 (antibody, V domains shown)
VH: B1 VH with S54D
VL: B1 VL with A34G, P45A, H50Q, K65D, Y91F, V97L, I99V, L101P, G105Q, E110D
B16: 11F8-11B12 (antibody, V domains shown)
VH: B1 VH with S54D
VL: B1 VL with A34G, H50Q, L51I, Y54F, K65D, V97I, I99L
B17: 11B12-SG-11B12-DA (antibody, V domains shown)
VH: B2 VH with D54S
VL: B1 VL with H50Q, L51I, Y54F, K65D, V97I, I99L
B18: 11F5-11F8 (antibody, V domains shown)
VH: B4 VH
VL: B1 VL with A34G
B19: 11F5-SG-11F5-DA (antibody, V domains shown)
VH: B4 VH with D54S
VL: B1 VL with P45A, H50Q, K65D, Y91F, V97L, I99V, L101P, G105Q, E110D
B20: 11B12-AG-11B12-DA (antibody, V domains shown)
VH: B2 VH with D54A
VL: B1 VL with H50Q, L51I, Y54F, K65D, V97I, I99L
B21: 11F5-SG-11F5-AG (antibody, V domains shown)
VH: B4 VH with D54S
VL: DIVMTQTPLSLSVTPGQPASISCKSSQSLLYSAGKTYLYWYLQKAGQPPQLLIYEVSNRFSGVPDRFSGSGSGTDFTLKISRVEAEDVGVFYCMQSLKVPPTFGQGTKVDIK
B22: 11F5-DA-11F5-AG (antibody, V domains shown)
VH: B4 VH with G55A
VL: B21 VL
B23: 11F8-SG-11F8-SG (antibody, V domains shown)
VH: B1 VH
VL: B1 VL with D33S, A34G
B24: 11F8-DA-11F8-AG (antibody, V domains shown)
VH: B1 VH with S54D, G55A
VL: B1 VL with D33A, A34G
B25: 11F8-DA-11F8-SG (antibody, V domains shown)
VH: B1 VH with S54D, G55A
VL: B1 VL with D33S, A34G
B26: 11F5-DA-11F5-SG (antibody, V domains shown)
VH: B4 VH with G55A
VL: B21 VL with A33S

Numbering of substitutions follows the chain as printed.

One test deals with T1, mouse CCR8. Kind of test: FACS. (Flow cytometry measures light scatter and fluorescence of single cells or particles in a stream.)
Broadly, the EC50 is the midpoint of the concentration-response curve. Regarding B1, the EC50 is 0.173 µg/mL.
With B2, a half-maximal effect (EC50) was put at 0.171 µg/mL.
With B3, the EC50 is 0.128 µg/mL.
The same measure, in the same setting: the same measure for B4: 0.163 µg/mL.
B5 gave an EC50 of 0.148 µg/mL.
On to B6, for which the EC50 came out at 0.038 µg/mL.
On the same count and under the same terms, under B7 stands 0.171 µg/mL.
In turn, B8 returned an EC50 of 0.042 µg/mL.
In the case of B9, it took 0.041 µg/mL to reach a half-maximal effect (EC50).
For B10, the EC50 came out at 0.253 µg/mL.
Molecule B11 gave a concentration for a half-maximal effect (EC50) of 0.12 µg/mL.
B12 displayed an EC50 of 0.218 µg/mL.
The same measure, in the same setting: under B13 stands 0.099 µg/mL; under B14, 0.149 µg/mL; under B15, 0.116 µg/mL.
For B16, the EC50 is 0.155 µg/mL.
B17: the midpoint of the response, the EC50, lay at 0.059 µg/mL.
Regarding B18, a half-maximal response (EC50) required 0.184 µg/mL.
Regarding B19, a half-maximal effect (EC50) was put at 0.138 µg/mL.
The same measure, in the same setting: under B20 stands 0.074 µg/mL; under B21, 0.092 µg/mL; under B22, 0.463 µg/mL.

The target of another test is T1, mouse CCR8. Kind of test: FACS. This is another data set of the same source.
In turn, B23 gave an EC50 of 0.053 µg/mL.

In the next test the target is human CCR8 (human). Kind of test: FACS.
Sequence of human CCR8 (human) (chain, as listed by the source): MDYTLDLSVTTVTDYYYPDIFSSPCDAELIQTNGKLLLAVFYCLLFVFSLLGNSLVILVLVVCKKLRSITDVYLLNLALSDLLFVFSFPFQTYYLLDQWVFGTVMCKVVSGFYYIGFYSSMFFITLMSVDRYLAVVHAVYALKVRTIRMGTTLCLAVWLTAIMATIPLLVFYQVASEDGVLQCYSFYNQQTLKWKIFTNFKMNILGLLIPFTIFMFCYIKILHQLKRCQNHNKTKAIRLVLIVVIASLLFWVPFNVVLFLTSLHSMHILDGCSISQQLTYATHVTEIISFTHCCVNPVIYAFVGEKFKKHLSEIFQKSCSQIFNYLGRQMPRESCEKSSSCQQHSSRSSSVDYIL
For B1, the EC50 was 0.049 µg/mL.
For B2, the half-maximal effective concentration (EC50) was determined as 0.298 µg/mL.
In turn, B3 displayed a concentration for a half-maximal effect (EC50) of 0.222 µg/mL.
B4 returned an EC50 of 0.132 µg/mL.
On the same count and under the same terms, under B5 stands 0.033 µg/mL; under B6, 0.043 µg/mL.
The same measure, in the same setting: the same measure for B7: 0.12 µg/mL; for B8: 0.047 µg/mL.
B9 registered an EC50 of 0.048 µg/mL.
In turn, B10 had an EC50 of 0.392 µg/mL.
Molecule B24 registered an EC50 of 0.076 µg/mL.
B11 had an EC50 of 0.165 µg/mL.
B25: the EC50 worked out at 0.154 µg/mL.
Consider B12, for which the response was half-maximal at 0.05 µg/mL (EC50).
The molecule B13 showed an EC50 of 0.009 µg/mL.
B15 showed a concentration for a half-maximal effect (EC50) of 0.137 µg/mL.
Still for that read-out and setting: under B16 stands 0.075 µg/mL.
Consider B17, for which the EC50 worked out at 0.064 µg/mL.
The molecule B18 registered an EC50 of 0.162 µg/mL.
Same read-out and setting: under B19 stands 0.15 µg/mL.
As to B20, the EC50 stood at 0.073 µg/mL.
B21 gave an EC50 of 0.069 µg/mL.
Molecule B26 yielded an EC50 of 0.124 µg/mL.

A further test concerns the target human CCR8 (human). As to the kind of experiment: FACS. This is another data set of the same source.
In turn, B23 registered an EC50 of 0.015 µg/mL.
